{
  "source": "paper PMC11507749",
  "biological_target": "iLID-YFP-SNAP (2×Strep-iLID-EYFP-SNAP)",
  "test": "light-induced membrane recruitment in GUVs",
  "data": [
    {"substance": "mCherry-SspB(micro)", "values": [
      {"measurement": "half-time of dissociation from the membrane in the dark", "value": 61.2, "unit": "s"},
      {"measurement": "half-time of dissociation in the dark", "value": 41.8, "unit": "s"}
    ]}
  ]
}
